Source: patent US20230391826A1, “COMPOSITIONS AND METHODS FOR TREATING DISEASES” (Sanford Burnham Prebys Medical Discovery Institute, priority 2020, published 2023)
*1 amine or outer side, *2 acyl side, *3 side chain or, on linkers, in order; H or OH if unused. Where no end group is shown, it is not given here. [ ]: non-standard residue; d: D form. Ccam = carbamidomethyl-cysteine, NC(=O)CSC[C@H](N[*:1])C(=O)[*:2]; βAla = NCCC(=O)O

B1: Click dimer (N-ter) (peptide)
peptide 1: KAWLAYPDSVPYRPK
peptide 2: XGAWLAYPDSVPYRPK
modifications: not fully specified; propargylglycine (Pra) at position 1, joined by a click linkage to KN3 of the other chain; C-terminal amide; azido-lysine (KN3) at position 1, joined by a click linkage to Pra of the other chain; C-terminal amide
B2: linear dimer (head-to-tail) (peptide)
peptide: [βAla]WLAYPDSVPYRPKGGAWLAYPDSVPYRPK-NH2
modifications: N-terminus assumed
SMILES: CC(C)C[C@H](NC(=O)[C@H](Cc1c[nH]c2ccccc12)NC(=O)CCN)C(=O)N[C@@H](C)C(=O)N[C@@H](Cc1ccc(O)cc1)C(=O)N1CCC[C@H]1C(=O)N[C@@H](CC(=O)O)C(=O)N[C@@H](CO)C(=O)N[C@H](C(=O)N1CCC[C@H]1C(=O)N[C@@H](Cc1ccc(O)cc1)C(=O)N[C@@H](CCCNC(=N)N)C(=O)N1CCC[C@H]1C(=O)N[C@@H](CCCCN)C(=O)NCC(=O)NCC(=O)N[C@@H](C)C(=O)N[C@@H](Cc1c[nH]c2ccccc12)C(=O)N[C@@H](CC(C)C)C(=O)N[C@@H](C)C(=O)N[C@@H](Cc1ccc(O)cc1)C(=O)N1CCC[C@H]1C(=O)N[C@@H](CC(=O)O)C(=O)N[C@@H](CO)C(=O)N[C@H](C(=O)N1CCC[C@H]1C(=O)N[C@@H](Cc1ccc(O)cc1)C(=O)N[C@@H](CCCNC(=N)N)C(=O)N1CCC[C@H]1C(=O)N[C@@H](CCCCN)C(N)=O)C(C)C)C(C)C
B3: Lys-linked dimer (C-ter) (peptide)
peptide 1: [βAla]WLAYPDSVPYRPKK
peptide 2: [βAla]WLAYPDSVPYRPK
modifications: also: bond at chain A 15 to a chain's C-terminus

Assays:
[1] = target: EphA2 extracellular domain fused to the Fc portion of an antibody (EphA2-Fc); experiment: ELISA, inhibition of ephrinA5-AP binding to immobilized EphA2-Fc; representative experiment, triplicates
[2] = target: EphA2 extracellular domain fused to the Fc portion of an antibody (EphA2-Fc); experiment: ELISA, inhibition of ephrinA5-AP binding to immobilized EphA2-Fc

Sequence of EphA2 extracellular domain fused to the Fc portion of an antibody (EphA2-Fc) (P29317 whole entry, the tested form may be a part): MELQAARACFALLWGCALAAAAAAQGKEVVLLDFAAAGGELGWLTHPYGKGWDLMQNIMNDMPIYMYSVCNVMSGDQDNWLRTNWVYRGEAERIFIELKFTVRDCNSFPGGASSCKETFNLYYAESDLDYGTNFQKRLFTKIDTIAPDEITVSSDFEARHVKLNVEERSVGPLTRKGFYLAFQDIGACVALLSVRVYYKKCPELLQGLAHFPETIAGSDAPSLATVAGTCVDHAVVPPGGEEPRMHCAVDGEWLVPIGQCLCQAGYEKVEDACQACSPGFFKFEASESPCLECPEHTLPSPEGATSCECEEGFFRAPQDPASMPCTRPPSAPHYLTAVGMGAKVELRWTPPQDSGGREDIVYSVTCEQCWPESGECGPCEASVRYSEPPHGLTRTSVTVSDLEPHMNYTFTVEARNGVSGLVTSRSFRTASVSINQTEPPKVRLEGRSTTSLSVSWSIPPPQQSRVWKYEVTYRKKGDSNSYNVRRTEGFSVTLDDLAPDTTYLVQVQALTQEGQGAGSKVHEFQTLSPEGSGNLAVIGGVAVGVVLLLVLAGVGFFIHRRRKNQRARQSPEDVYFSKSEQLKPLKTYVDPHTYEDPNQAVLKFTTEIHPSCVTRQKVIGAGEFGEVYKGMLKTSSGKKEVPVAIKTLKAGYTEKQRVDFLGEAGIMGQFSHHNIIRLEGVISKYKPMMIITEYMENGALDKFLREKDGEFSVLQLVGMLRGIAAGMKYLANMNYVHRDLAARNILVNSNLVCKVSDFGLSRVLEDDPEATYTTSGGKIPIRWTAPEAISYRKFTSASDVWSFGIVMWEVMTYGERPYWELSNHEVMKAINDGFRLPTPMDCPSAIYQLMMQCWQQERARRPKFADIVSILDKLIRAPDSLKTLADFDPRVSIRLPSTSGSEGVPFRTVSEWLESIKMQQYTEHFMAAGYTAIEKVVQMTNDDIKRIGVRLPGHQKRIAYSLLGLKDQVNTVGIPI

Binder | IC50 [1] [nM] | IC50 [2] [nM]
[Ccam]GAWLAYPDSVPYR [CcamGA-WLA-YR] | 1300 | 1400
B1 | 0.58 | 0.54
B2 | 0.38 | 0.4
B3 | 0.77 | 0.77
